Source: paper PMC5496856

Settings: glycan lost; control: wild type

Row | Protein | other: T cell antigenicity
1 | MPT32 (also called Rv1860 or Apa): T10V (protein) parent chain: MHQVDPNLTRRKGRLAALAIAAMASASLVTVAVPATANADPEPAPPVPTTAASPPSTAAAPPAPATPVAPPPPAAANTPNAQPGDPNAAPPPADPNAPPPPVIAPNAPQPVRIDNPVGGFSFALPAGWVESDAAHFDYGSALLSKTTGDPPFPGQPPPVANDTRIVLGRLDQKLYASAEATDSKAAARLGSDMGEFYMPYPGTRINQETVSLDANGVSGSASYYEVKFSDPSKPNGQIWTGVIGSPAANAPDAGPPQRWFVVWLGTANNPVDKGAAKALAESIRPLVAPPPAPAPAPAEPAPAPAPAGEVAPTPTTPTPQRTLPA | no change
2 | MPT32 (also called Rv1860 or Apa): T18V (protein) parent chain: MHQVDPNLTRRKGRLAALAIAAMASASLVTVAVPATANADPEPAPPVPTTAASPPSTAAAPPAPATPVAPPPPAAANTPNAQPGDPNAAPPPADPNAPPPPVIAPNAPQPVRIDNPVGGFSFALPAGWVESDAAHFDYGSALLSKTTGDPPFPGQPPPVANDTRIVLGRLDQKLYASAEATDSKAAARLGSDMGEFYMPYPGTRINQETVSLDANGVSGSASYYEVKFSDPSKPNGQIWTGVIGSPAANAPDAGPPQRWFVVWLGTANNPVDKGAAKALAESIRPLVAPPPAPAPAPAEPAPAPAPAGEVAPTPTTPTPQRTLPA | increases
